Results: PMC4809600, “The Influence of Chronic Wound Extracts on Inflammatory Cytokine and Histatin Stability” (PLoS ONE, 2016)

How the values were obtained:
[1] = Stability in CWE with protease inhibitor cocktail (PIC), capillary zone electrophoresis; type: in vitro ADME, human; settings: 1 mg/ml in PBS mixed 1:1 with CWE (1 mg/ml protein, pool of 5 donors) in PBS containing PIC (final 1:140 v/v), 37°C, CZE, ratio to imidazole, 0 h = 100%
Procedure, shortened: (§1)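 Peptides or cytokines (1 mg/ml stock) mixed 1:1 with PBS or pooled chronic-wound extract (1 mg/ml protein, three pools of five donors), ±protease inhibitor cocktail, at 37 °C for up to 96 h. Analyzed by capillary zone electrophoresis (pH 2.5 phosphate, 200 nm), with peak ratio to imidazole standard relative to 0 h as % intact.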

[2] = Stability in PBS, capillary zone electrophoresis; type: physicochemical; settings: 1 mg/ml in PBS mixed 1:1 with PBS, 37°C, 96 h, CZE, UV 200 nm, ratio to imidazole internal standard, 0 h = 100%
Protocol: To determine the stability of the different peptides in CWE, histatins and cytokines were dissolved in PBS at 1 mg/ml. Histatins and cytokines were incubated in a 1:1 ratio with (i) PBS, (ii) CWE in PBS, or (iii) CWE in PBS containing PIC, in a total volume of 25 μl. Imidazole (Sigma-Aldrich) was added as an internal standard, with a final concentration of 100 μg/ml. The mixtures were incubated at 37°C, and samples were taken at 0, 24, 48, 72 and 96 h. For histatins containing mixtures, additional samples were taken after 2, 4, 8 and 16 h of incubation.
The samples were analyzed with a BioFocus 2000 capillary zone electrophoresis system (Bio-Rad Laboratories, Hercules, CA, USA) equipped with an uncoated fused-silica capillary of internal diameter 50 μm and a length of 24 cm. Samples were loaded by pressure injection (5 psi/sec). Separation was performed at 10 kV (cathode at the detector side) at 20°C using 0.1 M phosphate buffer (pH 2.5) as electrolyte and monitored continuously at 200 nm. Peaks were quantified with the BioFocus Integrator software. In order to quantify the percentage of intact peptides remaining after incubation with CWE, the ratios of histatins, rhIL-6 or rhCXCL8 to internal standard was set at 100% at 0h, and the ratios at the other incubation time points were related to this.

[3] = Stability in chronic wound extracts (CWE), capillary zone electrophoresis; type: in vitro ADME, human; settings: 37°C, CZE, 0 h = 100%; for Percentage intact, CWE 24h / Percentage intact, CWE 48h / Percentage intact, CWE 72h / Percentage intact, CWE 96h: 1 mg/ml in PBS mixed 1:1 with CWE (1 mg/ml protein, pool of 5 donors) in PBS, UV 200 nm, ratio to imidazole; for Starting material remaining intact after 96 h in CWE: 1 mg/ml in PBS mixed 1:1 with CWE (1 mg/ml protein, pools of 5 donors), mean of 3 independent experiments
Procedure, shortened: as §1

Row | Substance | Percentage intact, CWE + PIC 24h ([1]; experiment 1 of 3) [%] | Percentage intact, CWE + PIC 24h ([1]; experiment 2 of 3) [%] | Percentage intact, CWE + PIC 24h ([1]; experiment 3 of 3) [%] | Percentage intact, CWE + PIC 48h ([1]; experiment 1 of 3) [%] | Percentage intact, CWE + PIC 48h ([1]; experiment 2 of 3) [%] | Percentage intact, CWE + PIC 48h ([1]; experiment 3 of 3) [%] | Percentage intact, CWE + PIC 72h ([1]; experiment 1 of 3) [%] | Percentage intact, CWE + PIC 72h ([1]; experiment 2 of 3) [%] | Percentage intact, CWE + PIC 72h ([1]; experiment 3 of 3) [%] | Percentage intact, CWE + PIC 96h ([1]; experiment 1 of 3) [%] | Percentage intact, CWE + PIC 96h ([1]; experiment 2 of 3) [%] | Percentage intact, CWE + PIC 96h ([1]; experiment 3 of 3) [%] | Percentage intact, PBS 96h ([2]; experiment 1 of 3) [%] | Percentage intact, PBS 96h ([2]; experiment 2 of 3) [%] | Percentage intact, PBS 96h ([2]; experiment 3 of 3) [%] | Percentage intact, CWE 24h ([3]; experiment 1 of 3) [%] | Percentage intact, CWE 24h ([3]; experiment 2 of 3) [%] | Percentage intact, CWE 24h ([3]; experiment 3 of 3) [%] | Percentage intact, CWE 48h ([3]; experiment 1 of 3) [%] | Percentage intact, CWE 48h ([3]; experiment 2 of 3) [%] | also measured
1 | CXCL8 CS: rhCXCL8 from Cell Systems, Cat nr. CS-C1069, CXCL8 (1–77) | 104.747 | 99.4146 | 99.4369 | 98.6704 | 94.4506 | 91.0713 | 96.1244 | 88.7106 | 87.6839 | 87.7388 | 86.0248 | 85.3459 | 91.5892 | 91.4833 | 87.1812 | 88.8666 | 92.8064 | 96.6818 | 87.3559 | 86.1407 | Percentage intact, CWE 48h ([3]; experiment 3 of 3): 89.0325%; Percentage intact, CWE 72h ([3]; experiment 1 of 3): 83.3251%; Percentage intact, CWE 72h ([3]; experiment 2 of 3): 83.9414%; Percentage intact, CWE 72h ([3]; experiment 3 of 3): 84.6704%; Percentage intact, CWE 96h ([3]; experiment 1 of 3): 78.0414%; Percentage intact, CWE 96h ([3]; experiment 2 of 3): 80.0263%; Percentage intact, CWE 96h ([3]; experiment 3 of 3): 80.2041%; Starting material remaining intact after 96 h in CWE [3]: 79%
2 | IL-6 BioV: rhIL-6 from Biovision Inc, Cat nr. 4143 | 100.779 | 107.202 | 97.2326 | 100.572 | 97.0586 | 95.2476 | 93.9962 | 96.7281 | 94.831 | 90.2939 | 94.0745 | 94.3747 | 98.6817 | 79.9235 | 96.6267 | 86.2456 | 92.3596 | 87.2422 | 74.2431 | 71.0486 | Percentage intact, CWE 48h ([3]; experiment 3 of 3): 85.9071%; Percentage intact, CWE 72h ([3]; experiment 1 of 3): 64.7766%; Percentage intact, CWE 72h ([3]; experiment 2 of 3): 67.0796%; Percentage intact, CWE 72h ([3]; experiment 3 of 3): 78.8792%; Percentage intact, CWE 96h ([3]; experiment 1 of 3): 48.2486%; Percentage intact, CWE 96h ([3]; experiment 2 of 3): 62.2324%; Percentage intact, CWE 96h ([3]; experiment 3 of 3): 63.6069%; Starting material remaining intact after 96 h in CWE [3]: 58%
